The text below walks through data of the supplement of paper PMC9112550, “Optimization of the antimicrobial peptide Bac7 by deep mutational scanning” (BMC Biology, 2022).
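Note: peptides expressed intracellularly from a pBAD plasmid library in pooled LB shake-flask culture, induced with 0.3% L-arabinose, DNA abundance read by NGS, three biological replicates, DESeq2 with apeglm shrinkage.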

This data set deals with Escherichia coli TOP10. In words: shrunken log2 fold change of peptide-encoding DNA abundance (4.5 h post-induction vs induction); higher = less antimicrobial activity (less host growth inhibition). The conditions noted are these: time post-induction: 4.5 h; library: site-saturation at positions 5, 18, 19, 20.
As for RRIRYRPPRLPRPRPRPHTAPRP, the “shrunken log2 fold change” value was -0.57. RRIRLRPPRLPRPRPRPNDMPRP: the “shrunken log2 fold change” value was -0.258. As for RRIRWRPPRLPRPRPRPLFNPRP, the figure is -0.711; as for RRIRCRPPRLPRPRPRPLTIPRP, -0.66; as for RRIRERPPRLPRPRPRPTMLPRP, 0.00422. As to RRIRDRPPRLPRPRPRPHRSPRP, the “shrunken log2 fold change” value was -0.015.

RRIRARPPRLPRPRPRPVSEPRP: the “shrunken log2 fold change” value is 0.338. As for RRIRWRPPRLPRPRPRPWKEPRP, the figure is 0.162; as for RRIRKRPPRLPRPRPRPPGQPRP, 1.25; as for RRIRQRPPRLPRPRPRPKQRPRP, 0.0443. As for RRIRWRPPRLPRPRPRPKHEPRP, the “shrunken log2 fold change” value came to 0.288. On to RRIRWRPPRLPRPRPRPPDLPRP, for which the “shrunken log2 fold change” value is 0.888.

RRIRGRPPRLPRPRPRPVGRPRP: the “shrunken log2 fold change” value turned out to be 0.842. As for RRIRHRPPRLPRPRPRPHDLPRP, the “shrunken log2 fold change” value came out at 0.0509. Turning to RRIRFRPPRLPRPRPRPWFEPRP, the “shrunken log2 fold change” value is -0.0653. Consider RRIRSRPPRLPRPRPRPNHDPRP, for which the “shrunken log2 fold change” value is -0.69. Consider RRIRKRPPRLPRPRPRPASPPRP, for which the “shrunken log2 fold change” value came out at 0.122. The figure for RRIRPRPPRLPRPRPRPMFKPRP is -0.0861; for RRIRHRPPRLPRPRPRPPNSPRP it is -0.201; for RRIRQRPPRLPRPRPRPFIHPRP it is -0.876. As to RRIRYRPPRLPRPRPRPVIYPRP, the “shrunken log2 fold change” value is -0.0529. For the sequence RRIRARPPRLPRPRPRPQTYPRP, the “shrunken log2 fold change” value stood at 0.00151. For RRIRMRPPRLPRPRPRPEQDPRP, the “shrunken log2 fold change” value is 0.0255. RRIRGRPPRLPRPRPRPKCDPRP: the “shrunken log2 fold change” value was determined as 0.812. In the case of RRIRQRPPRLPRPRPRPNDLPRP, the “shrunken log2 fold change” value is -0.0128. For the sequence RRIRMRPPRLPRPRPRPGEAPRP, the “shrunken log2 fold change” value was 2.18. As to RRIRIRPPRLPRPRPRPAIAPRP, the “shrunken log2 fold change” value is -0.206. As for RRIRKRPPRLPRPRPRPNRYPRP, the “shrunken log2 fold change” value was 0.0446.

As to RRIRWRPPRLPRPRPRPAYSPRP, the “shrunken log2 fold change” value is -0.153. Turning to RRIRMRPPRLPRPRPRPDAGPRP, the “shrunken log2 fold change” value was 1.12. Take RRIRYRPPRLPRPRPRPCVFPRP: the “shrunken log2 fold change” value is -0.123. On to RRIRSRPPRLPRPRPRPVFAPRP, for which the “shrunken log2 fold change” value was 0.218. Regarding RRIRSRPPRLPRPRPRPLREPRP, the “shrunken log2 fold change” value stood at 0.369. As for RRIRARPPRLPRPRPRPRVNPRP, the figure is 0.631; as for RRIRHRPPRLPRPRPRPHSQPRP, -0.224. The figure for RRIRSRPPRLPRPRPRPMNVPRP is -0.0106; for RRIRSRPPRLPRPRPRPYNGPRP it is -0.0342. For the sequence RRIRIRPPRLPRPRPRPMARPRP, the “shrunken log2 fold change” value was -0.153. Take RRIRCRPPRLPRPRPRPQFIPRP: the “shrunken log2 fold change” value is -0.866. Turning to RRIRFRPPRLPRPRPRPHDLPRP, the “shrunken log2 fold change” value was -0.203.

As for RRIRSRPPRLPRPRPRPYAWPRP, the “shrunken log2 fold change” value is -0.087. Regarding RRIRIRPPRLPRPRPRPLNGPRP, the “shrunken log2 fold change” value is -0.0474.

Regarding RRIRLRPPRLPRPRPRPVKHPRP, the “shrunken log2 fold change” value is -0.131.

Regarding RRIRMRPPRLPRPRPRPVRAPRP, the “shrunken log2 fold change” value is 1.08. For RRIRGRPPRLPRPRPRPCEFPRP, the “shrunken log2 fold change” value amounted to 0.0669. As to RRIRQRPPRLPRPRPRPPICPRP, the “shrunken log2 fold change” value turned out to be 0.0388. With RRIRNRPPRLPRPRPRPPCSPRP, the “shrunken log2 fold change” value is -0.327. Turning to RRIRWRPPRLPRPRPRPWKHPRP, the “shrunken log2 fold change” value amounted to 0.0264. As for RRIRSRPPRLPRPRPRPTDSPRP, the figure is -0.0593; as for RRIRRRPPRLPRPRPRPGLDPRP, 0.161. As for RRIRNRPPRLPRPRPRPETHPRP, the figure is -0.0861; as for RRIRPRPPRLPRPRPRPRHKPRP, -0.0467; as for RRIRARPPRLPRPRPRPESPPRP, 0.145.

In the case of RRIRRRPPRLPRPRPRPKQTPRP, the “shrunken log2 fold change” value was determined as 0.186. For RRIRRRPPRLPRPRPRPYEEPRP, the “shrunken log2 fold change” value was -0.3.

On to RRIRIRPPRLPRPRPRPYICPRP, for which the “shrunken log2 fold change” value was -0.393. For the sequence RRIRGRPPRLPRPRPRPKSDPRP, the “shrunken log2 fold change” value was 0.584.

RRIRVRPPRLPRPRPRPRIKPRP: the “shrunken log2 fold change” value is -0.125. Regarding RRIRRRPPRLPRPRPRPSPIPRP, the “shrunken log2 fold change” value is 0.11. For the sequence RRIRVRPPRLPRPRPRPDPFPRP, the “shrunken log2 fold change” value was 0.0836. In the case of RRIRKRPPRLPRPRPRPCDGPRP, the “shrunken log2 fold change” value was 0.00408. As to RRIRARPPRLPRPRPRPQFNPRP, the “shrunken log2 fold change” value was -0.0606. Consider RRIRVRPPRLPRPRPRPKVTPRP, for which the “shrunken log2 fold change” value was found to be 0.0458. On to RRIRNRPPRLPRPRPRPIEVPRP, for which the “shrunken log2 fold change” value amounted to 0.0112. Regarding RRIRLRPPRLPRPRPRPRKEPRP, the “shrunken log2 fold change” value stood at 0.325.

Turning to RRIRLRPPRLPRPRPRPMSGPRP, the “shrunken log2 fold change” value is -0.0068. Regarding RRIRIRPPRLPRPRPRPGKWPRP, the “shrunken log2 fold change” value was 0.0539. Consider RRIRARPPRLPRPRPRPMDTPRP, for which the “shrunken log2 fold change” value worked out at 0.143. As for RRIRNRPPRLPRPRPRPGKPPRP, the “shrunken log2 fold change” value is -0.117.

Regarding RRIRHRPPRLPRPRPRPSLCPRP, the “shrunken log2 fold change” value is -0.0468. For RRIRTRPPRLPRPRPRPQSMPRP, the “shrunken log2 fold change” value came to 0.13. In the case of RRIRHRPPRLPRPRPRPGWRPRP, the “shrunken log2 fold change” value is 0.232. Turning to RRIRERPPRLPRPRPRPYFAPRP, the “shrunken log2 fold change” value was -0.373. As for RRIRFRPPRLPRPRPRPSWCPRP, the figure is -0.0879. Regarding RRIRKRPPRLPRPRPRPVYTPRP, the “shrunken log2 fold change” value was -0.356. The figure for RRIRYRPPRLPRPRPRPGTWPRP is 0.585; for RRIRCRPPRLPRPRPRPGTLPRP it is -0.237. For the sequence RRIRTRPPRLPRPRPRPMYSPRP, the “shrunken log2 fold change” value was -0.00295. Take RRIRWRPPRLPRPRPRPIYVPRP: the “shrunken log2 fold change” value is -0.0477.

Consider RRIRPRPPRLPRPRPRPTMEPRP, for which the “shrunken log2 fold change” value was 0.0735. Take RRIRDRPPRLPRPRPRPGPLPRP: the “shrunken log2 fold change” value is 0.0434.

In the case of RRIRMRPPRLPRPRPRPYHTPRP, the “shrunken log2 fold change” value was -1.11. For the sequence RRIRFRPPRLPRPRPRPQSQPRP, the “shrunken log2 fold change” value is 0.0846. In the case of RRIRNRPPRLPRPRPRPQNYPRP, the “shrunken log2 fold change” value was -0.846.

For RRIRNRPPRLPRPRPRPNAKPRP, the “shrunken log2 fold change” value is -0.109. Take RRIRTRPPRLPRPRPRPTGNPRP: the “shrunken log2 fold change” value is -0.445.

As to RRIRKRPPRLPRPRPRPHFAPRP, the “shrunken log2 fold change” value was 0.336. As for RRIRWRPPRLPRPRPRPEEQPRP, the figure is 0.149; as for RRIRYRPPRLPRPRPRPNQDPRP, -0.406. The figure for RRIRWRPPRLPRPRPRPFYTPRP is -0.575; for RRIRTRPPRLPRPRPRPILQPRP it is -0.44.

For RRIRGRPPRLPRPRPRPYWGPRP, the “shrunken log2 fold change” value was 0.198. In the case of RRIRARPPRLPRPRPRPDNQPRP, the “shrunken log2 fold change” value was 0.0635. The figure for RRIRGRPPRLPRPRPRPTDMPRP is 1.1. In the case of RRIRIRPPRLPRPRPRPDVQPRP, the “shrunken log2 fold change” value is -0.192.

Regarding RRIRRRPPRLPRPRPRPPGKPRP, the “shrunken log2 fold change” value worked out at 0.978.

Take RRIRERPPRLPRPRPRPFYHPRP: the “shrunken log2 fold change” value is -1.01. Take RRIRDRPPRLPRPRPRPKDTPRP: the “shrunken log2 fold change” value was found to be 0.0607. For the sequence RRIRKRPPRLPRPRPRPAGQPRP, the “shrunken log2 fold change” value stood at 0.0284. As for RRIRQRPPRLPRPRPRPSPYPRP, the figure is -0.187. Take RRIRYRPPRLPRPRPRPCFCPRP: the “shrunken log2 fold change” value is -0.565. As for RRIRTRPPRLPRPRPRPWQSPRP, the “shrunken log2 fold change” value stood at 0.0475. As for RRIRARPPRLPRPRPRPDREPRP, the “shrunken log2 fold change” value is -0.0167. Take RRIRIRPPRLPRPRPRPWEFPRP: the “shrunken log2 fold change” value was -0.000856. On to RRIRHRPPRLPRPRPRPDPCPRP, for which the “shrunken log2 fold change” value is -0.186. For the sequence RRIRFRPPRLPRPRPRPMNEPRP, the “shrunken log2 fold change” value was -0.595. For RRIRIRPPRLPRPRPRPLKMPRP, the “shrunken log2 fold change” value is -0.245.

For RRIRMRPPRLPRPRPRPLMCPRP, the “shrunken log2 fold change” value was -0.249. As for RRIRERPPRLPRPRPRPYMCPRP, the “shrunken log2 fold change” value is -0.216. RRIRARPPRLPRPRPRPLGVPRP: the “shrunken log2 fold change” value amounted to 1.44. In the case of RRIRIRPPRLPRPRPRPPFSPRP, the “shrunken log2 fold change” value is -0.245. With RRIRNRPPRLPRPRPRPGIIPRP, the “shrunken log2 fold change” value was -0.00401. Consider RRIRYRPPRLPRPRPRPYTTPRP, for which the “shrunken log2 fold change” value was -0.554. RRIRFRPPRLPRPRPRPDLPPRP: the “shrunken log2 fold change” value is -0.0804. Consider RRIRERPPRLPRPRPRPTGFPRP, for which the “shrunken log2 fold change” value was -0.00436. On to RRIRSRPPRLPRPRPRPWNQPRP, for which the “shrunken log2 fold change” value was determined as 0.0379. As for RRIRFRPPRLPRPRPRPISKPRP, the figure is -0.0939. Turning to RRIRRRPPRLPRPRPRPPMFPRP, the “shrunken log2 fold change” value came to 0.26. On to RRIRQRPPRLPRPRPRPMNRPRP, for which the “shrunken log2 fold change” value was -0.275. As for RRIRMRPPRLPRPRPRPGMTPRP, the figure is 1.47. As for RRIRTRPPRLPRPRPRPFTIPRP, the figure is -0.293.

With RRIRGRPPRLPRPRPRPGNYPRP, the “shrunken log2 fold change” value was -0.0899. For the sequence RRIRDRPPRLPRPRPRPALAPRP, the “shrunken log2 fold change” value is 1.32. Consider RRIRHRPPRLPRPRPRPPNRPRP, for which the “shrunken log2 fold change” value was -0.0966.

On to RRIRQRPPRLPRPRPRPWSPPRP, for which the “shrunken log2 fold change” value is -0.106.
